Data: PMC2658781, “Effective DNA Inhibitors of Cathepsin G by In Vitro Selection”

How the values were obtained:
Cathepsin G (CatG) [1] = biological target: T1, Cathepsin G (CatG) (Homo sapiens, UniProt P08311 21-244); experiment: SP Sepharose chromatography (Kd in figure only); 5 mM Mg2+; SELEX and Kd: 30 mM Tris-HCl pH 7.5, 150 mM NaCl, 5 mM KCl, 5 mM MgCl2, on ice/4 C; SPR: immobilized CatG, HBS-EP pH 7.4 running buffer, oligos in the Tris buffer, 25 C; details: protein: native, label: 5' 32P
T1 sequence: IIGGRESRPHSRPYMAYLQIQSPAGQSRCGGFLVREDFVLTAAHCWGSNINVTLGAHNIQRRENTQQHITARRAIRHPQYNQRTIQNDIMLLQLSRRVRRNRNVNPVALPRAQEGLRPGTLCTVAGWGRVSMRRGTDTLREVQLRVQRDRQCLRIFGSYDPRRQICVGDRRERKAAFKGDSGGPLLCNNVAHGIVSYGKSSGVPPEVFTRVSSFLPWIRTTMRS

Cathepsin G (CatG) [2] = biological target: T1, Cathepsin G (CatG); experiment: SP Sepharose chromatography; no appreciable affinity; SELEX and Kd: 30 mM Tris-HCl pH 7.5, 150 mM NaCl, 5 mM KCl, 5 mM MgCl2, on ice/4 C; SPR: immobilized CatG, HBS-EP pH 7.4 running buffer, oligos in the Tris buffer, 25 C; details: protein: native, label: 5' 32P

B1: CG51 (ssDNA)
DNA: CAACGTGTGATATGTGGGTATACGCTTGGGTGTTACGCTGAGCACAGAGGGTATTCGTGT
binding result (Cathepsin G (CatG) [1]; predicted fold about -2.52 kcal/mol): binds

B2: cCG51 (ssDNA)
DNA: ACACGAATACCCTCTGTGCTCAGCGTAACACCCAAGCGTATACCCACATATCACACGTTG
binding result (Cathepsin G (CatG) [1]): binds

B3: pE35 (PE35), L-Tyr aptamer (ssDNA)
DNA: AATTCGCTAGCTGGAGCTTGGATTGATGTGGTGTGTGAGTGCGGTGCCCGGATCC
binding result (Cathepsin G (CatG) [2]): no binding

GGTTGGTGTGGTTGG (structured_DNA) [THR, thrombin aptamer]
binding result (Cathepsin G (CatG) [2]; G-quartet, intramolecular): no binding
